Tests used:
[1] = molecular target: T1, rAOx (recombinant alcohol oxidase, A. terreus MTCC6324) (Aspergillus terreus, UniProt I7FDJ2); assay: FAD fluorescence quenching (ex […] nm, em […] nm) after reconstitution of apoenzyme; type: binding; conditions: refolding of apo-rAOx with 0.08 mM FAD, pH 9.0, 16 °C, ~80 h
T1 construct: gene AOx; full-length ORF 2001 bp, 666 residues; pET28a(+), N- and C-terminal His6 kept; ~74-76 kDa; highly aggregated (~1000 nm)
T1 sequence (I7FDJ2 1-666): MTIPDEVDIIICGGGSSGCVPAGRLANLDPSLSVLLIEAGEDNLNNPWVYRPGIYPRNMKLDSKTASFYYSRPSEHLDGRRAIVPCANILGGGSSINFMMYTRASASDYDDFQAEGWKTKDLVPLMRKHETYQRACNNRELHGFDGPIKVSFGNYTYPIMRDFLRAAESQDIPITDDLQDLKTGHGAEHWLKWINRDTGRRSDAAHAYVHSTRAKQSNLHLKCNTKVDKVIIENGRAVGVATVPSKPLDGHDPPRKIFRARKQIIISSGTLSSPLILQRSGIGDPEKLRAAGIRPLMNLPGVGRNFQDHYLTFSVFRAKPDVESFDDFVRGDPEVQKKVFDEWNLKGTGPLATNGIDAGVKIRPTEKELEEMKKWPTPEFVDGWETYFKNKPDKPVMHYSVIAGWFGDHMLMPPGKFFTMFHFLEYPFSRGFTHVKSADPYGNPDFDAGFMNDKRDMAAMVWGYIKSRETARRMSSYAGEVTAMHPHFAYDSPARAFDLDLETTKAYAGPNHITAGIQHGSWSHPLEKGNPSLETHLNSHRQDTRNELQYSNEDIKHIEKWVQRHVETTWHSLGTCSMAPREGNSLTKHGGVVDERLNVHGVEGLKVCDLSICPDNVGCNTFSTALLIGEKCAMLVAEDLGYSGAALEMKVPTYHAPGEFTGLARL

[2] = test system: COc1cccc(CO)c1; assay: purified protein; conditions: apparent, FAD-reconstituted enzyme, 0.1 M sodium phosphate pH 6.0
[3] = substrate: OCc1ccccc1; assay: purified protein; type: biochemical, Aspergillus terreus; conditions: apparent, FAD-reconstituted enzyme, 0.1 M sodium phosphate pH 6.0
[4] = substrate: COc1ccc(CO)cc1OC; assay: purified protein; type: biochemical, Aspergillus terreus; conditions: apparent, FAD-reconstituted enzyme, 0.1 M sodium phosphate pH 6.0

`Cc1cc2nc3c(=O)[nH]c(=O)nc-3n(C[C@H](O)[C@H](O)[C@H](O)COP(=O)(O)OP(=O)(O)OC[C@H]3O[C@@H](n4cnc5c(N)ncnc54)[C@H](O)[C@@H]3O)c2cc1C` [FAD] was tested, and the “FAD fluorescence quenching (ex 443 nm, em 527 nm) after reconstitution of apoenz” value [1] was “lower fluorescence intensity of the holoenzyme relative to that of free FAD inferred efficient incorporation”.

For “rAOx (recombinant alcohol oxidase, A. terreus MTCC6324) (Aspergillus terreus)”, the Km [2] was 2.88 mM, the kcat [2] was 106 s⁻¹ and the kcat/Km [2] was 36700 M⁻¹ s⁻¹.

B1: rAOx (recombinant alcohol oxidase, A. terreus MTCC6324) (Aspergillus terreus) (protein)
chain: MTIPDEVDIIICGGGSSGCVPAGRLANLDPSLSVLLIEAGEDNLNNPWVYRPGIYPRNMKLDSKTASFYYSRPSEHLDGRRAIVPCANILGGGSSINFMMYTRASASDYDDFQAEGWKTKDLVPLMRKHETYQRACNNRELHGFDGPIKVSFGNYTYPIMRDFLRAAESQDIPITDDLQDLKTGHGAEHWLKWINRDTGRRSDAAHAYVHSTRAKQSNLHLKCNTKVDKVIIENGRAVGVATVPSKPLDGHDPPRKIFRARKQIIISSGTLSSPLILQRSGIGDPEKLRAAGIRPLMNLPGVGRNFQDHYLTFSVFRAKPDVESFDDFVRGDPEVQKKVFDEWNLKGTGPLATNGIDAGVKIRPTEKELEEMKKWPTPEFVDGWETYFKNKPDKPVMHYSVIAGWFGDHMLMPPGKFFTMFHFLEYPFSRGFTHVKSADPYGNPDFDAGFMNDKRDMAAMVWGYIKSRETARRMSSYAGEVTAMHPHFAYDSPARAFDLDLETTKAYAGPNHITAGIQHGSWSHPLEKGNPSLETHLNSHRQDTRNELQYSNEDIKHIEKWVQRHVETTWHSLGTCSMAPREGNSLTKHGGVVDERLNVHGVEGLKVCDLSICPDNVGCNTFSTALLIGEKCAMLVAEDLGYSGAALEMKVPTYHAPGEFTGLARL
notes: full-length ORF 2001 bp, 666 residues; pET28a(+), N- and C-terminal His6 kept; ~74-76 kDa; highly aggregated (~1000 nm)
Molecule B1 has a Km [3] of 10.80 mM, a kcat [3] of 2.16 s⁻¹ and a kcat/Km [3] of 200 M⁻¹ s⁻¹. The Km [4] was 4.91 mM, the kcat [4] was 115 s⁻¹ and the kcat/Km [4] was 23500 M⁻¹ s⁻¹.

Source: publication PMC3994049, “Molecular Characterization and Expression of a Novel Alcohol Oxidase from Aspergillus terreus MTCC6324” (PLoS ONE, 2014)
